Assays:
[1] = molecular target: T1, endogenous HDAC3, O15379
T1 chain: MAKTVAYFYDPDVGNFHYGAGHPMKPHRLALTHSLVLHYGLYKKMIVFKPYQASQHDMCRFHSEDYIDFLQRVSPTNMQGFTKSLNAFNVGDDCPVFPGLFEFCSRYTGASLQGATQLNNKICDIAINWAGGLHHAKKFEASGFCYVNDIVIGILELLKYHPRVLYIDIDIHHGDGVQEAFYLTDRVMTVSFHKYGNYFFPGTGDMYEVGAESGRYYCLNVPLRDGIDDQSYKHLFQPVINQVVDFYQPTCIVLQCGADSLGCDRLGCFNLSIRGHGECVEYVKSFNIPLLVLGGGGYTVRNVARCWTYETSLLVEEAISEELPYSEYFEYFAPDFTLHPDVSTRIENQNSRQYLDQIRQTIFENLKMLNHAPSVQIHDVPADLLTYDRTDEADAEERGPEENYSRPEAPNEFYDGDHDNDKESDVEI

[2] = molecular target: endogenous HDAC1 (UniProt Q13547 1-482); assay: GST pull-down from SupT1 cell extracts, western blot
Procedure: (§1) After incubation for 3 hours at 4° C. with rocking, reactions were washed three times in IPLS, three times in the same buffer but at 1 M NaCl, and two times in HD buffer (Fischle et al., supra). Pulldown reactions were split, and either processed for histone deacetylase activity assays or for western blotting. For pulldown reactions with ³⁵S-labeled proteins, cDNAs were transcribed and translated with the TNT reticulocyte system (Promega). The labeling reaction (5 μl) was incubated with GST fusion proteins in a total volume of 200 μl of GST buffer (20 mM Tris-HCl, pH 8.0, 150 mM KCl, 5 mM DTT, 2 mM EDTA, 10% glycerol, 0.5% non fat dry milk, 0.1% NP-40) for 1 h at 4° C. with rocking. Reactions were washed five times in the same buffer, and bound proteins were resolved on denaturing SDS-PAGE gels for analysis by autoradiography.
(§2) After extensive washing, the bound material was tested for HDAC activity.

[3] = molecular target: endogenous HDAC2 (UniProt Q92769 1-488); assay: as above
Sequence of endogenous HDAC2 (Q92769 whole entry): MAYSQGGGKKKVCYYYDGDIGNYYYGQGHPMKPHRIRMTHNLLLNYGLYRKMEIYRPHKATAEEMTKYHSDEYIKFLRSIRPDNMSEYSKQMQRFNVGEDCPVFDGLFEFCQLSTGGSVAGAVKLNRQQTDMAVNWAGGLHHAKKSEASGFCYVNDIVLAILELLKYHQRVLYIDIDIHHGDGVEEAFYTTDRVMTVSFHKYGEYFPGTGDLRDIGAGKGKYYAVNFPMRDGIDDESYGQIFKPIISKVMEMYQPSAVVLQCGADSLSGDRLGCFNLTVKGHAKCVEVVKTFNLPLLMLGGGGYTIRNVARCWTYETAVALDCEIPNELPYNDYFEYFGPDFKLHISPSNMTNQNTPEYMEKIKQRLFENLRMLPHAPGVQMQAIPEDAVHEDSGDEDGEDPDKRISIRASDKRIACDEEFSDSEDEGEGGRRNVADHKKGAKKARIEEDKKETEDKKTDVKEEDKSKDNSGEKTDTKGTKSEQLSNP
Procedure: as §1, §2

Sequence of endogenous HDAC1 (Q13547 whole entry): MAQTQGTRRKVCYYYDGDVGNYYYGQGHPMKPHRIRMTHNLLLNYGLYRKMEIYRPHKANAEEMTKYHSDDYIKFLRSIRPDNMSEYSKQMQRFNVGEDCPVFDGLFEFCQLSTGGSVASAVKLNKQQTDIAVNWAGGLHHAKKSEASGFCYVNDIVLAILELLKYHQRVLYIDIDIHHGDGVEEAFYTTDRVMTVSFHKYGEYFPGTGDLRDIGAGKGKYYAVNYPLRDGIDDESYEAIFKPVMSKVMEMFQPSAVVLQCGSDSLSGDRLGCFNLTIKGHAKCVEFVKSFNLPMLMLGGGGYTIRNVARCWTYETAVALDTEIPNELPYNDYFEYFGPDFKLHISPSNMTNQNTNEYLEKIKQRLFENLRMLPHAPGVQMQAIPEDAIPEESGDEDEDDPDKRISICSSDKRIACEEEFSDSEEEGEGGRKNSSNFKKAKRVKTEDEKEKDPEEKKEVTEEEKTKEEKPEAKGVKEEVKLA

binding result [2]: no binding
binding result [3]: no binding
B1: GST-HDAC7(aa 438-912) (enzyme)
chain: QGGHRPLSRAQSSPAAPASLSAPEPASQARVLSSSETPARTLPFTTGLIYDSVMLKHQCSCGDNSRHPEHAGRIQSIWSRLQERGLRSQCECLRGRKASLEELQSVHSERHVLLYGTNPLSRLKLDNGKLAGLLAQRMFVMLPCGGVGVDTDTIWNELHSSNAARWAAGSVTDLAFKVASRELKNGFAVVRPPGHHADHSTAMGFCFFNSVAIACRQLQQQSKASKILIVDWDVHHGNGTQQTFYQDPSVLYISLHRHDDGNFFPGSGAVDEVGAGSGEGFNVNVAWAGGLDPPMGDPEYLAAFRIVVMPIAREFSPDLVLVSAGFDAAEGHPAPLGGYHVSAKCFGYMTQQLMNLAGGAVVLALEGGHDLTAICDASEACVAALLGNRVDPLSEEGWKQKPNLNAIRSLEAVIRVHSKYWGCMQRLASCPDSWVPRVPGADKEEVEAVTALASLSVGILAEDRPSEQLVEEEEP
notes: also called active GST-HDAC7; not shown: glutathione-S-transferase (GST) of the pGEX4T1 vector (Pharmacia), N-terminal fusion partner
HDAC activity associated with the GST pull-down from GST-HDAC4 depleted lysate against GST depleted lysate (fold reduction) [1]: 3

— patent US20030143712A1 (J DAVID GLADSTONE INSTITUTES, published 2003)
